Patent US20250250357A1 (NANJING ZAIMING PHARMACEUTICAL, published 2025)
Like-named read-outs stand apart in the source and are kept apart here.

T1: monkey MSLN on HEK293T-monkey MSLN recombinant cells (monkey)
T1 construct: Full-length precursor as transfected; processing on the cell is not described; also called HEK293-monkey MSLN
T1 chain: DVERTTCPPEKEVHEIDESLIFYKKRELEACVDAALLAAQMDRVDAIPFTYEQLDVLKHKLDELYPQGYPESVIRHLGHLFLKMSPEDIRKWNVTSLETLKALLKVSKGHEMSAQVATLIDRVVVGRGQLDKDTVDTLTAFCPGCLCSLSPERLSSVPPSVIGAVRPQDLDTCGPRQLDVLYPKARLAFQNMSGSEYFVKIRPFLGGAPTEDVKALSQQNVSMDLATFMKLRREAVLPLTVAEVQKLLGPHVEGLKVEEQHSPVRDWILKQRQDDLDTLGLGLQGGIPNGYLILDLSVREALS


Legend:
[1] = target: T2, human MSLN on OVCAR3 tumor cells (human, UniProt Q13421 296-598); experiment: FACS, OVCAR3 cells
T2 construct: whole, on cells; also called human MSLN protein

[2] = target: T3, human MSLN-R3 on HEK293T-hMSLN-R3 recombinant cells (human, UniProt Q13421 487-606); experiment: FACS, HEK293T-hMSLN-R3 cells
T3 construct: the C-terminal limit is uncertain; also called human MSLN-R3 membrane protein

[3] = target: T1, monkey MSLN on HEK293T-monkey MSLN …; experiment: FACS, HEK293T-monkey MSLN cells
[4] = target: T4, human MSLN-hFc recombinant protein (human, UniProt Q13421 296-580); experiment: SPR (Biacore 8K), MSLN-hFc captured, antibody injected
T4 construct: Captured by an anti-human IgG antibody on the chip; also called human MSLN protein; Acro MSN-H5253

[5] = target: T2, human MSLN on OVCAR3 tumor cells; experiment: FACS, OVCAR3 cells; remark: listed apart in the source
[6] = target: T3, human MSLN-R3 on HEK293T-hMSLN-R3 …; experiment: FACS, HEK293T-hMSLN-R3 cells; remark: listed apart in the source
[7] = target: T1, monkey MSLN on HEK293T-monkey MSLN …; experiment: FACS, HEK293T-monkey MSLN cells

T2 sequence (Q13421 other isoform, or with tags, fused parts or gaps): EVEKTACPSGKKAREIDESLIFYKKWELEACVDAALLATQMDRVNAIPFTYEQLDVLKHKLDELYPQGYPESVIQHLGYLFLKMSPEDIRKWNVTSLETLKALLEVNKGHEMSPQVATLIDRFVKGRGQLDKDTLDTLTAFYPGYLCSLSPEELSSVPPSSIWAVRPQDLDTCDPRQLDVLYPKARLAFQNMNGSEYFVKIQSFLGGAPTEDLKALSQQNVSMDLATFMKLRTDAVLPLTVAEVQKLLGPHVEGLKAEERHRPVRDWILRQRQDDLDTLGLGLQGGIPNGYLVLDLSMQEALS
T4 sequence (Q13421 other isoform, or with tags, fused parts or gaps): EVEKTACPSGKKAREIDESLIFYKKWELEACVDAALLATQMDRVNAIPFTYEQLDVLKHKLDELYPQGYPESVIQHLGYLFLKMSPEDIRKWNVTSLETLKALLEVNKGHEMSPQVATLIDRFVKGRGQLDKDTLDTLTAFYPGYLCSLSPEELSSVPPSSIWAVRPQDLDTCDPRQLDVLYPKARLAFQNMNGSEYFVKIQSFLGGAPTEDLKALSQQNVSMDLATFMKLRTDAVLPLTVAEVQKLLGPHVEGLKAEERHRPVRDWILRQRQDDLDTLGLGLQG
T3 sequence (Q13421 495-614): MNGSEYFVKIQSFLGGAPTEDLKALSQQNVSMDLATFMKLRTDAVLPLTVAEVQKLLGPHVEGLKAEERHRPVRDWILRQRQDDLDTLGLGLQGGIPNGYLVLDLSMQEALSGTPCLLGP

EC50 [1] [nM] | Maximum_MFI [1] [MFI] | EC50 [2] [nM] | Maximum_MFI [2] [MFI] | EC50 [3] [nM] | Maximum_MFI [3] [MFI] | Kd [4] [nM] | koff [4] [s⁻¹] | kon [4] [M⁻¹ s⁻¹] | EC50 [5] [nM] | Maximum_MFI [5] [MFI] | EC50 [6] [nM] | Maximum_MFI [6] [MFI] | EC50 [7] [nM] | Maximum_MFI [7] [MFI] | Binder
6.37 | 3140 | 4.65 | 5650 | 5.64 | 22500 |  |  |  |  |  |  |  |  |  | F2.39.3-H5 (scFv, not shown: small tags and cut ends, also called S009-F2.39.3 humanized antibody VH2 + VL1) scFv: EVQLVQSGAEVKKPGASVKVSCKASGYTFTNYWMHWVRQAPGQGLEWMGNINPSSGDSYYNERFMSRVTMTVDKSTSTAYMELSSLRSEDTAVYYCARSGGLWLAFWGQGTLVTVSSGGGGSGGGGSGGGGSDIVMTQSPDSLAVSLGERATINCKSSQTLLNSVSQNNYLAWYQQKPGQSPKLLIYFASTRESGVPDRFSGSGSGTDFTLTISSLQAEDVAVYYCQQHYRTPYTFGGGTKVEIK
54 | 4220 | 6.33 | 5970 | 8.74 | 24900 | 0.985 | 3.39e-05 | 34400 |  |  |  |  |  |  | F2.39.3-H2 (scFv, not shown: small tags and cut ends, also called S009-F2.39.3 humanized antibody VH1 + VL2) scFv: EVQLVQSGAEVKKPGASVKVSCKASGYTFTNYWMHWVRQAPGQGLEWMGNINPSSGDSYYNERFMSRVTMTVDKSTSTVYMELSSLRSEDTAVYYCARSGGLWLAFWGQGTLVTVSSGGGGSGGGGSGGGGSDIVMTQSPDSLAVSLGERATINCKSSQTLLNSVSQNNYLAWYQQKPGQSPTLLIYFASTRESGVPDRFSGSGSGTDFTLTISSLQAEDVAVYYCQQHYRTPYTFGGGTKVEIK
40.3 | 4160 | 6.26 | 5780 | 8.9 | 24100 |  |  |  |  |  |  |  |  |  | F2.39.3-H6 (scFv, not shown: small tags and cut ends, also called S009-F2.39.3 humanized antibody VH2 + VL2) scFv: EVQLVQSGAEVKKPGASVKVSCKASGYTFTNYWMHWVRQAPGQGLEWMGNINPSSGDSYYNERFMSRVTMTVDKSTSTAYMELSSLRSEDTAVYYCARSGGLWLAFWGQGTLVTVSSGGGGSGGGGSGGGGSDIVMTQSPDSLAVSLGERATINCKSSQTLLNSVSQNNYLAWYQQKPGQSPTLLIYFASTRESGVPDRFSGSGSGTDFTLTISSLQAEDVAVYYCQQHYRTPYTFGGGTKVEIK
11 | 4000 | 4.91 | 5820 | 5.31 | 24400 |  |  |  |  |  |  |  |  |  | F2.39.3-H1 (scFv, not shown: small tags and cut ends, also called S009-F2.39.3 humanized antibody VH1 + VL1) scFv: EVQLVQSGAEVKKPGASVKVSCKASGYTFTNYWMHWVRQAPGQGLEWMGNINPSSGDSYYNERFMSRVTMTVDKSTSTVYMELSSLRSEDTAVYYCARSGGLWLAFWGQGTLVTVSSGGGGSGGGGSGGGGSDIVMTQSPDSLAVSLGERATINCKSSQTLLNSVSQNNYLAWYQQKPGQSPKLLIYFASTRESGVPDRFSGSGSGTDFTLTISSLQAEDVAVYYCQQHYRTPYTFGGGTKVEIK
18.6 | 4120 | 6.91 | 5600 | 12.8 | 26000 |  |  |  |  |  |  |  |  |  | F2.39.3-H8 (scFv, not shown: small tags and cut ends, also called S009-F2.39.3 humanized antibody VH2 + VL4) scFv: EVQLVQSGAEVKKPGASVKVSCKASGYTFTNYWMHWVRQAPGQGLEWMGNINPSSGDSYYNERFMSRVTMTVDKSTSTAYMELSSLRSEDTAVYYCARSGGLWLAFWGQGTLVTVSSGGGGSGGGGSGGGGSDIVMTQTPLSLSVTPGQPASISCKSSQTLLNSVSQNNYLAWYQQKPGQSPTLLVYFASTRESGVPDRFSGSGSGTDFTLKISRVEAEDVGVYYCQQHYRTPYTFGGGTKVEIK
 |  |  |  |  |  | 1.83 | 0.000466 | 254000 | 2.07 | 2190 | 1.21 | 1520 | 5.11 | 8170 | F7.33.24-H2 (scFv, not shown: small tags and cut ends, also called S009-F7.33.24 humanized antibody VH1 + VL2) scFv: EVQLVQSGAEVKKPGASVKVSCKASGYTFTSYWMHWVRQAPGQRLEWMGNVNPSNGGSNYNEKFKNRVTITVDKSASTAYMELSSLRSEDTAVYYCAPHYIGSRPGFAYWGQGTLVTVSSGGGGSGGGGSGGGGSDIVMTQTPLSLSVTPGQPASISCKASQNVGTNIAWYLQKPGQSPQALIYSASYRYSGVPDRFSGSGSGTDFTLKISRVEAEDVGVYYCQQYNSYPLTFGGGTKVEIK
 |  |  |  |  |  | 1.06 | 0.000435 | 409000 | 2.78 | 2420 | 1.35 | 1470 | 4.98 | 8430 | F7.33.24-H5 (scFv, not shown: small tags and cut ends, also called S009-F7.33.24 humanized antibody VH1a + VL2) scFv: EVQLVQSGAEVKKPGASVKVSCKASGYTFTSYWMHWVRQAPGQRLEWMGNVNPSSGGSNYNEKFKNRVTITVDKSASTAYMELSSLRSEDTAVYYCAPHYIGSRPGFAYWGQGTLVTVSSGGGGSGGGGSGGGGSDIVMTQTPLSLSVTPGQPASISCKASQNVGTNIAWYLQKPGQSPQALIYSASYRYSGVPDRFSGSGSGTDFTLKISRVEAEDVGVYYCQQYNSYPLTFGGGTKVEIK
 |  |  |  |  |  | 1.32 | 0.000529 | 402000 | 1.8 | 2250 | 1.52 | 1400 | 4.6 | 8000 | F7.33.24-H8 (scFv, not shown: small tags and cut ends, also called S009-F7.33.24 humanized antibody VH2 + VL2) scFv: EVQLVQSGAEVKKPGASVKVSCKASGYTFTSYWMHWVRQAPGQGLEWMGNVNPSNGGSNYNEKFKNRVTITVDKSASTAYMELSSLRSEDTAVYYCAPHYIGSRPGFAYWGQGTLVTVSSGGGGSGGGGSGGGGSDIVMTQTPLSLSVTPGQPASISCKASQNVGTNIAWYLQKPGQSPQALIYSASYRYSGVPDRFSGSGSGTDFTLKISRVEAEDVGVYYCQQYNSYPLTFGGGTKVEIK
 |  |  |  |  |  |  |  |  | 0.92 | 2200 | 1.27 | 1330 | 5.07 | 7940 | F7.33.24-H12 (scFv, not shown: small tags and cut ends, also called S009-F7.33.24 humanized antibody VH2a + VL3) scFv: EVQLVQSGAEVKKPGASVKVSCKASGYTFTSYWMHWVRQAPGQGLEWMGNVNPSNAGSNYNEKFKNRVTITVDKSASTAYMELSSLRSEDTAVYYCAPHYIGSRPGFAYWGQGTLVTVSSGGGGSGGGGSGGGGSDIVMTQTPLSLSVTPGQPASISCKASQNVGTNIAWYQQKPGQSPQALIYSASYRYSGVPDRFSGSGSGTDFTLKISRVEAEDVGVYYCQQYNSYPLTFGGGTKVEIK
9.56 | 3250 | 4.7 | 4720 | 6.72 | 16000 |  |  |  |  |  |  |  |  |  | F2.23.12-H1 (scFv, not shown: small tags and cut ends, also called S009-F2.23.12 humanized antibody VH1 + VL1) scFv: EVQLVQSGAEVKKPGASVKVSCKASGYTFTNYWMHWVRQAPGQGLEWMGNINPSNGGPYYNERFRSRVTMTVDKSTSTVYMELSSLRSEDTAVYYCARPYYGSSYGYFDYWGQGTTVTVSSGGGGSGGGGSGGGGSDIQMTQSPSSLSASVGDRVTITCKASQDINKYIAWYQQKPGKAPKLLIHYTSELQPGVPSRFSGSGSGTDFTFTISSLQPEDIATYYCLQYANPLRTFGGGTKVEIK
14.5 | 3040 | 5.57 | 4590 | 5.22 | 14700 |  |  |  |  |  |  |  |  |  | F2.23.12-H8 (scFv, not shown: small tags and cut ends, also called S009-F2.23.12 humanized antibody VH2 + VL4) scFv: EVQLVQSGAEVKKPGASVKVSCKASGYTFTNYWMHWVRQAPGQGLEWMGNINPSNGGPYYNERFRSRVTMTVDKSTSTAYMELSSLRSEDTAVYYCARPYYGSSYGYFDYWGQGTTVTVSSGGGGSGGGGSGGGGSDIQMTQSPSSLSASVGDRVTITCKASQDINKYIAWYQHKPGKAPKLLIHYTSELQPGVPSRFSGSGSGRDYTFTISSLQPEDIATYYCLQYANPLRTFGGGTKVEIK
80.4 | 2920 | 9.39 | 4010 | 12.3 | 16100 |  |  |  |  |  |  |  |  |  | F2.23.12-H16 (scFv, not shown: small tags and cut ends, also called S009-F2.23.12 humanized antibody VH4 + VL4) scFv: EVQLVQSGAEVKKPGASVKVSCKASGYTFTNYWMHWVRQAPGQGLEWMGNINPSQGGPYYNERFRSRVTMTVDKSTSTAYMELSSLRSEDTAVYYCARPYYGSSYGYFDYWGQGTTVTVSSGGGGSGGGGSGGGGSDIQMTQSPSSLSASVGDRVTITCKASQDINKYIAWYQHKPGKAPKLLIHYTSELQPGVPSRFSGSGSGRDYTFTISSLQPEDIATYYCLQYANPLRTFGGGTKVEIK
9.9 | 3630 | 2.67 | 4760 | 2.5 | 14500 |  |  |  |  |  |  |  |  |  | F2.23.12-H4 (scFv, not shown: small tags and cut ends, also called S009-F2.23.12 humanized antibody VH1 + VL4) scFv: EVQLVQSGAEVKKPGASVKVSCKASGYTFTNYWMHWVRQAPGQGLEWMGNINPSNGGPYYNERFRSRVTMTVDKSTSTVYMELSSLRSEDTAVYYCARPYYGSSYGYFDYWGQGTTVTVSSGGGGSGGGGSGGGGSDIQMTQSPSSLSASVGDRVTITCKASQDINKYIAWYQHKPGKAPKLLIHYTSELQPGVPSRFSGSGSGRDYTFTISSLQPEDIATYYCLQYANPLRTFGGGTKVEIK
